{"source": "patent EP1165781B1", "about": "(ELI LILLY AND COMPANY, dated 2007)", "molecules": {"B1": {"name": "FasLigand (monomer) (ligand)", "chain": "QLFHLQKELAELRESTSQMHTASSLEKQIGHPSPPPEKKELRKVAHLTGKSNSRSMPLEWEDTYGIVLLSGVKYKKGGLVINETGLYFVYSKVYFRGQSCNNLPLSHKVYMRNSKYPQDLVMMEGKMMSYCTTGQMWARSSYLGAVFNLTSADHLYVNVSELSLVNFEESQTFFGLYKL", "modifications": "Amine-coupled through lysines to a CM5 chip.", "notes": "Amine-coupled to a CM5 chip; also called Fas Ligand (Kamiya Biomedical Company)"}}, "key": {"[1]": {"target": "FasLigand (monomer) (Homo sapiens (Human)) (UniProt P48023)", "experiment": "SPR (Biacore 2000), FasL amine-coupled to CM5 chip, Fas in solution"}, "[2]": {"target": "T1, FLINT (FAS Ligand Inhibitory Protein), mature human FLINT (human, UniProt O95407 30-300)", "T1 construct": "also called mature FLINT; native FLINT", "T1 sequence": "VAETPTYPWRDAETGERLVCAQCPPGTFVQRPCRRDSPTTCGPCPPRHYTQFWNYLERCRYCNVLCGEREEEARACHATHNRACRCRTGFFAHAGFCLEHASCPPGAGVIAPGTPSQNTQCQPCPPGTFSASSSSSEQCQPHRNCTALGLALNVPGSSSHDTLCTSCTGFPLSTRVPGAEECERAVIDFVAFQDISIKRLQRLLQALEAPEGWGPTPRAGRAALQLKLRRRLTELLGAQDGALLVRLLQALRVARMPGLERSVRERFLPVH", "experiment": "SPR (Biacore 2000), FasL amine-coupled to CM5 chip, FLINT in solution"}}}
{"molecule": "Fas/Fc chimera (R&D Systems) (Fc fusion)", "values": [{"measurement": "Kd", "setting": "[1]", "result": 162, "unit": "nM"}]}
{"molecule": "B1", "values": [{"measurement": "Kd", "setting": "[2]", "result": 113, "unit": "nM"}]}
